Here are results for one molecule from paper PMC8873477, “Structural basis of adenylyl cyclase 9 activation” (Nature Communications, 2022).

The assay has as its target T1, C-terminally truncated bovine AC9_(1250) (residues 1-1250 of AC9) (bovine, UniProt E1BM79 1-1250).
T1 construct: the purification is said to be identical to that of AC9; source: HEK293F cells, transient transfection (PEI), purified as AC9
T1 sequence (looked up): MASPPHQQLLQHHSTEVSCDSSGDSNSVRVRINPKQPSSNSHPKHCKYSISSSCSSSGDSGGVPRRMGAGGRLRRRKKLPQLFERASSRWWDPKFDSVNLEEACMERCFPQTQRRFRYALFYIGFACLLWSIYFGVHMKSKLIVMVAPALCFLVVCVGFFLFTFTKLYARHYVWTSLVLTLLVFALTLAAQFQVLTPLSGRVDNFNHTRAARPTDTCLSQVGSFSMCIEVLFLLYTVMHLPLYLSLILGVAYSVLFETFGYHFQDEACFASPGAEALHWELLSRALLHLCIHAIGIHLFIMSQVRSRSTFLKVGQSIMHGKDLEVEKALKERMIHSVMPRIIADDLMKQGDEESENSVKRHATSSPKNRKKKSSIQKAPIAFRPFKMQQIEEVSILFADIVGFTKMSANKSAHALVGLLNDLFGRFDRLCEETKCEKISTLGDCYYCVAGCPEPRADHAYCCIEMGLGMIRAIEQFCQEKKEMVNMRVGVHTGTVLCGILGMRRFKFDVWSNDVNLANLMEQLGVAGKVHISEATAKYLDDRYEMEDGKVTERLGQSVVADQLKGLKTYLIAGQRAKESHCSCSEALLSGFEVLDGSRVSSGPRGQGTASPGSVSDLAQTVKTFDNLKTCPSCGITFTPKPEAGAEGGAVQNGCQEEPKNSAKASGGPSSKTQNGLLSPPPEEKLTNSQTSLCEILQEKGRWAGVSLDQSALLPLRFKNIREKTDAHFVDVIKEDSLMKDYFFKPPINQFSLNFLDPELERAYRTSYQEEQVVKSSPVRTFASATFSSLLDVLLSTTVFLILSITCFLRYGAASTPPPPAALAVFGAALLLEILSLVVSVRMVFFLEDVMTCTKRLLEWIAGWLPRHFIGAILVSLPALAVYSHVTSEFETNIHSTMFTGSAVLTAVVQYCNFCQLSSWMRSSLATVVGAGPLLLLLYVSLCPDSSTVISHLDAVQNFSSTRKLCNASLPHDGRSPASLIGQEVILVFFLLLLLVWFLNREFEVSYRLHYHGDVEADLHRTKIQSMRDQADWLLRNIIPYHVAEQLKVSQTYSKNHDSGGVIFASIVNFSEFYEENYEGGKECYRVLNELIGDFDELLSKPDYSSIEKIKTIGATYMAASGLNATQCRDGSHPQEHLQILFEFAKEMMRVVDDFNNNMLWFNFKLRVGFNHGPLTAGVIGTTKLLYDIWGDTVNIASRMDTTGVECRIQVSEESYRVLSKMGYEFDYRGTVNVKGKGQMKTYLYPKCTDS
Kind of assay: cryo-EM structure; AC9_(1250) at 5 mg/ml with 5 mM MnCl2, 0.5 mM MANT-GTP and a 2-fold molar excess of GTPγS-activated Gαs, 30 min at 4 °C; no forskolin; soluble part refined to 3.8 Å. Particulars: both partners purified.

B1: bovine Gαs (G protein αs subunit), GTPγS-activated (natural protein, UniProt P04896-1 1-394, looked up)
chain: MGCLGNSKTEDQRNEEKAQREANKKIEKQLQKDKQVYRATHRLLLLGAGESGKSTIVKQMRILHVNGFNGEGGEEDPQAARSNSDGEKATKVQDIKNNLKEAIETIVAAMSNLVPPVELANPENQFRVDYILSVMNVPDFDFPPEFYEHAKALWEDEGVRACYERSNEYQLIDCAQYFLDKIDVIKQDDYVPSDQDLLRCRVLTSGIFETKFQVDKVNFHMFDVGGQRDERRKWIQCFNDVTAIIFVVASSSYNMVIREDNQTNRLQEALNLFKSIWNNRWLRTISVILFLNKQDLLAEKVLAGKSKIEDYFPEFARYTTPEDATPEPGEDPRVTRAKYFIRDEFLRISTASGDGRHYCYPHFTCAVDTENIRRVFNDCRDIIQRMHLRQYELL
notes: bovine Gαs, Uniprot ID P04896-1; also called G protein α subunit; source: High Five insect cells, baculovirus, purified (Ni-NTA, Superdex 200 SEC)
Regarding B1, the binding result is recorded as “binds”.
